The target of experiment [1] is T1, Mouse MARCO, full length, on cells (mouse, UniProt Q60754 1-518).
T1 construct: whole, on cells; the cell type is named under assay; also called muMARCO; MuMARCO
T1 sequence (looked up): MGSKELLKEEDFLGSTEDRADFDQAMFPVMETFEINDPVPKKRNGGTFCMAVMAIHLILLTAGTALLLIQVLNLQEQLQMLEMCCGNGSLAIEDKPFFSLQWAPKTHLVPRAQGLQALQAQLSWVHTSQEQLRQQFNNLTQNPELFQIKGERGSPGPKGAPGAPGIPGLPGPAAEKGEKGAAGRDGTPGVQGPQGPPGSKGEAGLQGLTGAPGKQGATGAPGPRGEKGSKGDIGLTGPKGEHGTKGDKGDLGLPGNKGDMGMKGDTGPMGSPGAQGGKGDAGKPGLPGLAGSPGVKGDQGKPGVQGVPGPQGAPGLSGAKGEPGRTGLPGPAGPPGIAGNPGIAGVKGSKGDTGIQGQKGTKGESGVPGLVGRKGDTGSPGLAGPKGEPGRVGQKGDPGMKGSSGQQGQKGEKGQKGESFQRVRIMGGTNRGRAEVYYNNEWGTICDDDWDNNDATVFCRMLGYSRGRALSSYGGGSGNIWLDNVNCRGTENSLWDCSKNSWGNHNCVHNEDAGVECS
Description: flow cytometry, 293T cells expressing mouse MARCO. The protocol: Supernatants were removed and cell pellets were resuspended in Ca²⁺+ and Mg²⁺+ Dulbecco's phosphate-buffered saline (D-PBS) at 1×10⁶ cells/ml. 100,000 cells/well were plated onto U-bottom 96-well plates for staining and all centrifugation steps were performed at 1500 rpm at 4° C. for 5 min and samples were kept protected from light throughout the protocol. Cells were pelleted and resuspended in 100 μl of Zombie NIR viability dye (BioLegend) prepared by diluting Zombie NIR dimethyl sulfoxide (DMSO) stock 1000-fold in D-PBS. […] Flow cytometry data were analyzed using FlowJo software (version 10.6.1) and data were processed and further analyzed in Microsoft Excel and GraphPad Prism software (version 8). Half-maximal effective concentrations (EC₅₀) were calculated based on geometric mean fluorescence intensities (gMFI). In case when the plates were not able to be analyzed on the cytometer, cells were pelleted after the washes and fixed in 100 μl of 2% paraformaldehyde (PFA), prepared by diluting the 16% (w/v) stock (Thermo Fisher) in DPBS, for 15 min at RT. […]
(In general: Flow cytometry measures light scatter and fluorescence of single cells or particles in a stream.)

Another experiment has as its target T2, human MSR1 (R&D Systems) (human, UniProt P21757 77-451, limits assumed).
T2 construct: Related scavenger receptor used as specificity control; also called MSRI
T2 sequence (looked up): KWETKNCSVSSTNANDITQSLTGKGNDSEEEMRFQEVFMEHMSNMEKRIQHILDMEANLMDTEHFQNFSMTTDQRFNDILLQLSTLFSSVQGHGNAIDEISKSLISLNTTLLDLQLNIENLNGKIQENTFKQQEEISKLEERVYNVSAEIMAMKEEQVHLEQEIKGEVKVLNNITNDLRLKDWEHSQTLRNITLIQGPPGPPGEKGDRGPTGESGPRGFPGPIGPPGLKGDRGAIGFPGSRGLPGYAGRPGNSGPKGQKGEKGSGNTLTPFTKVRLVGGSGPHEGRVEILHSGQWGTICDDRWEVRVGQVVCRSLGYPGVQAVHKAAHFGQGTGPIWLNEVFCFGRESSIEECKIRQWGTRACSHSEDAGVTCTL
Description: ELISA on MSR1. Summed up: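 Cross-reactivity with human MSR1 (R&D Systems) was tested by ELISA. Maxisorp plates were coated overnight with 0.1 ug/well protein in DPBS with Ca2+ and Mg2+, then blocked with PBS/Ca2+/2% FBS. Hybridoma supernatants were added 1:1 in that buffer for 1 hour at room temperature. Detection used HRP-conjugated anti-rat IgG for 1 hr, then TMB and A450.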
(In an ELISA, binding on a coated surface is turned into a signal by an enzyme label.)

In experiment [2] the target is T3, human MARCO (R&D biosystems), recombinant, coated in the LDL competition assay (human, UniProt Q9UEW3 70-520, limits assumed).
T3 construct: Bought protein
T3 sequence (looked up): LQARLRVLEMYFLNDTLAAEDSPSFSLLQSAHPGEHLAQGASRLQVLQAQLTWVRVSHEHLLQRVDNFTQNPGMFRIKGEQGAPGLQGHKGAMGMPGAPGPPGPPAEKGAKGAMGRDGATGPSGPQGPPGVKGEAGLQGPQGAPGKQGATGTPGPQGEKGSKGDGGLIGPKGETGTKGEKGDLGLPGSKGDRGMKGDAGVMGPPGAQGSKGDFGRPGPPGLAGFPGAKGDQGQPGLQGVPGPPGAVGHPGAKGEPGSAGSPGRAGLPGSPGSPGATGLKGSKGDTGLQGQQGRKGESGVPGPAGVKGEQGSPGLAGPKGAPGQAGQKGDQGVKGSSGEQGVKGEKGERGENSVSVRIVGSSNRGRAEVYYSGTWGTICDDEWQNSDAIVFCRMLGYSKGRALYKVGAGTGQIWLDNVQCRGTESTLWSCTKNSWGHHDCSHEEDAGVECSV
Description: LDL competition on coated human MARCO (MSD), competitor biotinylated hLDL. On the procedure:
A high-binding, 96-well MSD plate was coated with 4 μg/ml mouse MARCO or 4 μg/ml human MARCO (R&D biosystems). After the plate was blocked with PBST and 5% BSA for an hour, titrated anti-mouse or anti-human MARCO antibodies were added to the plate and incubated for 30 minutes. Biotinylated hLDL (860 pM or 2 μg/ml) were added to the antibody, and the antibody/LDL mixture was incubated for an hour to allow the mixture to reach binding equilibrium. The plates were washed and bound biotinylated LDL was detected with Sulfo-tagged streptavidin that generates an electrocheminlumenscent signal when read buffer is added and electricity is applied to the electrodes in the MSD plate. IC50's were calculated using a 4-parameter curve fit in GraphPad Prism software.
The newly generated rat hybridoma anti-human MARCO antibodies were characterized as previously described. Neither antibody bound to MSR1. Binding kinetics were determined via Multi Cycle Kinetics analysis using the huMARCO antigen as previously described.

Where a chain is given by its changes, count along the chain named.

B1: PI-HX-3021 (antibody, V domains shown)
VH: QVRLVQSGTALVRPGASVRMSCTASGYSFTDYWVSWVKQSHGQSLEWIGEIYPNSGTTNFNEKFEGKATLTVDKSTSTAYMELSRLTSEDSAIYYCTGEGTFDYWGQGVMVTVSS
VL: EIVLTQSPTTMAASPGEKVTITCRPSSSLSNMHWFQQKSGTSPKPWIYDTSKLASGVPDRFSGSGSGTSYSLTISSMEAEDAATYYCLQRSSYPPTFGAGTKLELK
notes: Rat IgG2a hybridoma antibody; Not the effector dead PI-3021; also called PI-3007 (name of the recombinant form)
As for B1, the 50% effective concentration (EC50) (as a rule, the concentration at which the effect is half-maximal) in experiment [1] lay in the range of 0.47 to 0.75 nM.

B2: PI-HX-3016 (antibody, rat IgG1, V domains shown)
VH: EVQLVESGGGLVKPGASLKLSCVASGFTFSDDWMNWVRQTPGKAMEWIGDIKYDGSYTNYVPSLKNRLTISRDNAKNTLYLQMTNVRSEDTATYYCTSGGVFDYWGQGVMVTVSS
VL: B1 VL with T5S, P25A, L29V, N31Y, S92G, L105V
notes: Rat IgG1 hybridoma antibody
As to B2, the concentration for a half-maximal effect (EC50) in experiment [1] fell in the range of 0.36 to 0.59 nM.

B3: PI-HX-3031 (antibody)
heavy: QVQLKESGPGLVQPSQTLSLTCTVSGFSLTSYHVSWVRQPPGKGLEWMGAIWTGGSIAYNSLLKSRLSISRDTSKSQVFLKMNSLQTEDTATYYCARDLSDYYSSYTSFDYWGQGVMVTVSTAETTAPSVYPLAPGTALKSNSMVTLGCLVKGYFPEPVTVTWNSGALSSGVHTFPAVLQSGLYTLTSSVTVPSSTWSSQAVTCNVAHPASSTKVDKKIVPRECNPCGCTGSEVSSVFIFPPKTKDVLTITLTPKVTCVVVDISQNDPEVRFSWFIDDVEVHTAQTHAPEKQSNSTLRSVSELPIVHRDWLNGKTFKCKVNSGAFPAPIEKSISKPEGTPRGPQVYTMAPPKEEMTQSQVSITCMVKGFYPPDIYTEWKMNGQPQENYKNTPPTMDTDGSYFLYSKLNVKKETWQQGNTFTCSVLHEGLHNHHTEKSLSHSP
light: DIQMTQSPASLSTSLGETVSIECLASEGISNDLAWYQQKSGKSPQLLIYAASRLQDGVPSRFSGSGSGTRYSLKISGMQPEDEADYFCQQSYKYPLTFGSGTKLEIKRADAAPTVSIFPPSTEQLATGGASVVCLMNNFYPRDISVKWKIDGTERRDGVLDSVTDQDSKDSTYSMSSTLSLTKADYESHNLYTCEVVHKTSSSPVVKSFNRNEC
notes: Parental rat hybridoma, rat IgG2a
As to B3, in the experiment with human MSR1 (R&D Systems), the binding result is “no binding”. For the same molecule, the concentration for a half-maximal effect (EC50) in experiment [2] was found to be 6.2 nM.

B4: PI-HX-3061 (antibody, rat IgG2a)
heavy: EVQLVESGGGLVQPGSSLKLSCVASKFTFSNYGMNWIRQAPKKGLEWIALIYYNSNNKYYADSVKGRFTISRDNSKNTLYLEMNSLRSEDTAMYYCAKSLTGGSDYFDSWGQGVMVTVSSAETTAPSVYPLAPGTALKSNSMVTLGCLVKGYFPEPVTVTWNSGALSSGVHTFPAVLQSGLYTLTSSVTVPSSTWPSQTVTCNVAHPASSTKVDKKIVPRNCGGDCKPCICTGSEVSSVFIFPPKPKDVLTITLTPKVTCVVVDISQDDPEVHFSWFVDDVEVHTAQTRPPEEQFNSTFRSVSELPILHQDWLNGRTFRCKVTSAAFPSPIEKTISKPEGRTQVPHVYTMSPTKEEMTQNEVSITCMVKGFYPPDIYVEWQMNGQPQENYKNTPPTMDTDGSYFLYSKLNVKKEKWQQGNTFTCSVLHEGLHNHHTEKSLSHSP
light: DVQMTQSPSYLAASPGESVSISCKASKSIGTFLAWYQEKPEKTNKLLIYSGSTLQSGTPSRFSGSGSGTDFTLTIRNLEPEDFAVYYCQQHDEYPFTFGSGTKLEIKRADAAPTVSIFPPSTEQLATGGASVVCLMNNFYPRDISVKWKIDGTERRDGVLDSVTDQDSKDSTYSMSSTLSLTKADYESHNLYTCEVVHKTSSSPVVKSFNRNEC
notes: Parental rat hybridoma, rat IgG2a; cross reactive with human and mouse MARCO
Regarding B4, in the experiment with human MSR1 (R&D Systems), the binding result was “no binding”. The EC50 in experiment [2] amounted to 8.2 nM.

For the origin of these results see patent US20220153832A1 (PIONYR IMMUNOTHERAPEUTICS, published 2022).
